# Where “and” joins values, the source holds several entries; their conditions need not be identical. Equal values may be shown once.
# B1: JCV agnoprotein expressed in JCV-infected SVG-A cells (natural protein)
# chain: MVLRQLSRKASVKVSKTWSGTKKRAQRILIFLLEFLLDFCTGEDSVDGKKRQRHSGLTEQTYSALPEPKAT
# notes: JC virus (JCV) agnoprotein made from the viral genome in infected cells; monomer about 8 kDa; The virus was prepared from JCI cells or JC virus-infected SVG-A cells; source: SVG-A cells infected with JCV for 1 week
# Biological target: the molecule itself
# Experiment: cross-linking; SVG-A cells infected with JCV for 1 week, reacted as whole cells with 0.5, 1, 2 or 5 mM DSS (or DMSO) for 2 h at 4°C in DPBS (+), quenched with 50 mM Tris pH 7.5, lysed in 1% Triton X-100; SDS-PAGE and immunoblot with anti-agnoprotein antibody
protein,measurement,value
B1,stoichiometry N,2 and 3 and 4 and 5
